According to patent US20260199524:

What was measured:
Histone H3.1 = Histone H3.1 (UniProt P68431)
Histone H3.3 = Histone H3.3 (UniProt P84243)
Histone H4 = Histone H4 (UniProt P62805)

wild type SIRT6 polypeptide (sirtuin 6)
histone acetylation/methylation PTM profile by LC-MS/MS in 3T3-L1 adipocytes (Histone H3.1): Overexpression of SIR6 wt or SIRT6cent in 3T3-L1 led to changes in the acetylation profiles of histones H3.1, H3.2 and H4 | histone acetylation/methylation PTM profile by LC-MS/MS in 3T3-L1 adipocytes (Histone H3.3): significant difference between AdiWT and AdiCent at the levels of lysines (K) ... K27, K36 and K37 in H3.3 | histone acetylation PTM profile by LC-MS/MS in 3T3-L1 adipocytes (Histone H4): Overexpression of SIR6 wt or SIRT6cent in 3T3-L1 led to changes in the acetylation profiles of histones H3.1, H3.2 and H4
